Ends that are not written are not given here.
T1: CRF2R
T1 sequence (Q13324 whole entry, species assumed, looked up): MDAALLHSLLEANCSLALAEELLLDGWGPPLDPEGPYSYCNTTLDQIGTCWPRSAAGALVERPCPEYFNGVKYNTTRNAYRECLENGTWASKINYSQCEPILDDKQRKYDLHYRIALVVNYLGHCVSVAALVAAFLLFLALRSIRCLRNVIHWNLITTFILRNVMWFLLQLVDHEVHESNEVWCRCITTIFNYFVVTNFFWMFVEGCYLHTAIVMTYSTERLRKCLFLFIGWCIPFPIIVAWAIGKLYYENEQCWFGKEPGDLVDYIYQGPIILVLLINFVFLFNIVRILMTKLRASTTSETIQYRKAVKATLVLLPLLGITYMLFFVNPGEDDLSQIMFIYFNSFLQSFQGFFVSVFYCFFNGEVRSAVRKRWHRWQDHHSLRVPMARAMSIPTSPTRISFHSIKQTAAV


Assays:
CRF2R = biological target: T1, CRF2R; experiment: cell-based or functional assay
CRF1R = experiment: cell-based or functional assay

Binder	CRF2R EC50 (CRF2R)	CRF2R Emax (CRF2R)	CRF1R EC50 (CRF1R)	CRF1R Emax (CRF1R)
IVLSLDVPIGLLQILLEMARAEQLAQQAHSNRKLMEII-NH2 [SEQ ID NO 164]	2.24 nM	92%	> 100 nM	26%
IVLSLDVPIGLLQILIEIEKQEKEKQQAANNARILARV-NH2 [SEQ ID NO 166]	3.7 nM	99%	438 nM	95%
SQEPPISLDLTFHLLREVLEQARARAAREQATTNARILARV-NH2 [SEQ ID NO 157]	42 nM	60.6%	100 nM	91%
IVLSLDVPIGLLQEVLEMARAEQLAQQAHSNRKLMEII-NH2 [SEQ ID NO 165]	> 100 nM	75%	> 100 nM	19%
ZGPPISIDLPFQLLRKMIEIEKQEKEKQQATTNRLLLDTV (C-terminal amide) [SEQ ID NO 16]	7.88 nM	86%	136 nM	98%
ZGIVLSLDVPIGLLRKMIEIEKQEKEKQQAANNRLLLDTI (C-terminal amide) [SEQ ID NO 153]	9.28 nM	97%	> 100 nM	7%
ZGPPISIDLPIQLLRKMIEIEKQEKEKQQATTNARILARV (C-terminal amide) [SEQ ID NO 150]	34.6 nM	70.5%	1000 nM	5.7%
ZGPPISIDLPFQLLRKMIEIEKQEKEKQQATTNRLLLATV (C-terminal amide) [SEQ ID NO 17]	10.2 nM	96%	260 nM	98%
ZGPPISIDLPTYLLRKMIEIEKQEKEKQQATTNARILARV (C-terminal amide) [SEQ ID NO 151]	36.8 nM	96%	1000 nM	19.9%
ZGPPISIDLPFQLLRKMIEIEKQEKEKQQATTNRLLLDRV (C-terminal amide) [SEQ ID NO 18]	5.29 nM	97%	106 nM	100%
SEEPPISLDVPIGLLQEVLEMARAEQLAQQAHSNRKLMEII-NH2 [SEQ ID NO 162]	> 100 nM	7%	> 100 nM	11%
IVLSLDVPIGLLQILLEIEKQEKEKQQAANNRLLLDTI-NH2 [SEQ ID NO 158]	6.37 nM	89%	> 100 nM	15%
IVLSLDVPIGLLQTLLELARTQSQRERAEQNRIIFDSV-NH2 [SEQ ID NO 160]	9.15 nM	87%	> 100 nM	10%
SQEIVLSLDVPIGLLREVLEMTKADQLAQQAHSNRKLLDIA-NH2 [SEQ ID NO 152]	> 100 nM	19%	> 100 nM	4%
IVLSLDVPIGLLQILLEQTKADQLAQQAHSNRKLLDIA-NH2 [SEQ ID NO 159]	90.8 nM	62%	> 100 nM	9%
IVLSLDVPIGLLQILLEQEKQEKEKQQATTNARILARV-NH2 [SEQ ID NO 167]	13 nM	100%	1000 nM	15%
SEEPPISLDLTFHLLREVLEMARAEQLAQQAHTNARILARV-NH2 [SEQ ID NO 161]	> 100 nM	88%	> 100 nM	77%
ZGPPISIDLSLELLRKMIEQARARAAREQATTNARILARV (C-terminal amide) [SEQ ID NO 156]	9.29 nM	79%	> 100 nM	6%
IVLSLDVPIGLLQILLEQARARAAREQATSNRKLMEII-NH2 [SEQ ID NO 163]	4.49 nM	96%	> 100 nM	13%
IVLSLDVPIGLLQILLEMTKADQLAQQAHSNRKLLDIA-NH2 [SEQ ID NO 155]	20.6 nM	94%	40.6 nM	16%
IVLSLDVPIGLLQILIEIEKQEKEKQQAANNRLLLDTI-NH2 [SEQ ID NO 154]	10.3 nM	100%	> 100 nM	7%

The next lines start with the values.

CRF2R EC50 (CRF2R)	CRF2R Emax (CRF2R)	CRF1R EC50 (CRF1R)	CRF1R Emax (CRF1R)	Binder
7.21 nM	91.4%	409 nM	89.7%	DNPSLSIDLPFQLLRTLLELARTQSQRERAEQNAIIFASV-NH2 [SEQ ID NO 182]
5.22 nM	97.8%	154 nM	100%	DNPSLSIDLPFILLRTLLELARTQSQRERAEQNAIIFASV-NH2 [SEQ ID NO 181]
5.42 nM	92.2%	1000 nM	34.8%	DNPSLSIDLPLILLRTLLELARTQSQRERAEQNAIIFASV-NH2 [SEQ ID NO 175]
5.17 nM	96.5%	1000 nM	55.7%	DNPSLSIDLPLFLLRTLLELARTQSQRERAEQNAIIFASV-NH2 [SEQ ID NO 178]
75 nM	83%	1000 nM	9%	ZGPPISIDVPTYLLRKMIEIEKQEKEKQQATTNARILARV (C-terminal amide) [SEQ ID NO 170]
17.8 nM	93%	978 nM	26%	ZGPPISIDVPTYLLRILIEIEKQEKEKQQATTNARILARV (C-terminal amide) [SEQ ID NO 169]
13.5 nM	100%	1000 nM	68%	ZGPPISIDVPFQLLRKMIEIEKQEKEKQQATTNARILARV (C-terminal amide) [SEQ ID NO 172]
17.6 nM	100%	206 nM	99%	ZGPPISIDVPFQLLRILIEIEKQEKEKQQATTNARILARV (C-terminal amide) [SEQ ID NO 171]
10.2 nM	92.5%	477 nM	78.9%	DNPSLSIDLPLHLLRTLLELARTQSQRERAEQNAIIFASV-NH2 [SEQ ID NO 179]
4.9 nM	75%	1000 nM	52%	IVLSLDVPIGLLQILIEIEKQEKEKQQAATTNARILARV-NH2 [SEQ ID NO 168]
5.63 nM	97.7%	613 nM	69.2%	DNPSLSIDLPLYLLRTLLELARTQSQRERAEQNAIIFASV-NH2 [SEQ ID NO 177]
4.42 nM	97.2%	1000 nM	29.1%	DNPSLSIDLPLLLLRTLLELARTQSQRERAEQNAIIFASV-NH2 [SEQ ID NO 174]
12.6 nM	90.2%	1000 nM	26.9%	DNPSLSIDLPLQLLRTLLELARTQSQRERAEQNAIIFASV-NH2 [SEQ ID NO 176]
100 nM	65.2%	1000 nM	6.05%	DNPSLSIDLPTYLLRTLLELARTQSQRERAEQNAIIFASV-NH2 [SEQ ID NO 173]
3.14 nM	95.7%	125 nM	99.3%	DNPSLSIDLPFLLLRTLLELARTQSQRERAEQNAIIFASV-NH2 [SEQ ID NO 180]

From patent US20030148956A1 (PROCTER AND GAMBLE, published 2003)
